# Experimental data reported in the RNAGym collection of RNA variant scans (doi:10.1073/pnas.2313332121).
# Variants at the floor of the assay were thinned out.
# B1: TPR 5TU (parent)
# chain: GGAUCUUCUCGAUCUAACAAAAAAGACAAAUCUGCCACAAAGCUUGAGAGCAUCUUCGGAUGCAGAGGCGGCAGCCUUCGGUGGCGCGAUAGCGCCAACGUUCUCAACUAUGACACGCAAAACGCGUGCUCCGUUGAAUGGAGUUUAUCAUG
# Variants of: B1
# Experiment: polymerase ribozyme fitness, log enrichment relative to wild type (log ratio); higher = more active; in vitro selection for triplet polymerase activity
# Procedure, shortened: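 Input and output libraries were sequenced on Illumina after a single in vitro selection round, run in triplicate on PCR-built, transcribed mutant libraries of each subunit of a heterodimeric triplet polymerase ribozyme. Selection annealed libraries to a biotinylated primer, the partner subunit and triplets, incubated them frozen at −7 °C, then gel-excised extended constructs for streptavidin-bead capture and RT-PCR. Genotypes with ≥10 input reads and ≥1 read per output were kept. Fitness is the logarithm, taken in base 2, of genotype enrichment divided by wild-type enrichment, using inverse-variance-weighted replicate averages.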
row,Variant,polymerase ribozyme fitness (log ratio)
1,GGAUCUUCUCGAUCUAACAAAAAAGACAAAUGUGCCACAAAGUUUGAGAGCAUUUUCGGAUGCAGAGGCGGCGGCCGUCGGUGGCGCGAUAGCGCCAACGUUCUCAACUAUGACACGCAAAACGCGUGCUCCGUUGAAUGGAGUUUAUCAUG [C32G C43U C54U A73G U77G],≤ -4.2
2,GGAUCUUCUCGAUCUAACAAAAAAGACAAAUGUGCCACAAAGCUUGAGCGCAUCUUCGGAUGCAGAGGCGGCAGCCUUCGGUGGCGCGAUAGCGCCAACGUUCUCAACUAUGACACGCAAAACGCGUGCUCCGUUGAAUGGUGUUUAUCAUG [C32G A49C A142U],≤ -4.2
3,GGAUCUUCUCGAUCUAACAAAAAAGACAAAUGUGCCACAAAGCUUGAGAGCAUCUUCGGAUGCAGAGGCGGCAGCCUUUGGUGGCGCGAUAGCGCGAACGUUCUCAACUAUGACACGCAAAACGCGUGCUCCGUUGAAUGGCGUUUAUCAUG [C32G C79U C96G A142C],-3.79
4,GGAUCUUCUCGAUCUAACAAAAAAGACAAAUGUGACACAAAGCUUGAGAGCAUCUUCGGAUGCAGAGGCGGCAGCCUUCGGUGGCGCGAUAGCGCCAACGUUCUCAACUAUGACACGCAAAACGCGUGCUCCGUUGAAUGGAGUUUAUCAUG [C32G C35A],-3.92
5,GGAUCUUCUCGAUCUAACAAAAAAGACAAAUGUGCCACAAAGCUUGAGAGCAUCUUUGGAUGCAGAGGCGGCAGCCUUCGGUGGCGCGAUAGCGUCAACGUUCUCAACUAUGACACGCAAAACGCGUGCUCCGUUGAAUGGCGGUUAUCAUG [C32G C57U C95U A142C U144G],≤ -4.2
6,GGAUCUUCUCGAUCUAACAAAAAAGACAAAUGUGCCACAAAGCUUGAGAGCAUCUUCGGAUGCAGAGGCGGCAGCCUUCGGUGGCGGGAUAGCGCCAACGUUCGCAACUGUGACACGCAAAACGCGUGCUCCGUUGAAUGGAGUUUAUCUUG [C32G C87G U104G A110G A150U],≤ -4.2
7,GGAUCUUCUCGAUCUAACAAAAAAGACAAAUGUGCCAUAAAGCUUGAGAGCAUCUUCAGAUGCAGAGGCGGCAGCCUUCGGAGGCGCGAUAGCGCAAACGUUCGCAACUCUGACACGCAAAACGCGUGCUCCAUUGAAAGGAGUUUAUCAUU [C32G C38U G58A U82A C96A U104G A110C G133A U139A G152U],≤ -4.2
8,GGAUCUUCUCGAUCUAACAAAAAAGACAAAUGUGCCACAAAGCUUGAGAGCAUCUUCGGAUGCAGAGGCGGCAGCCUUCGGUGGCGCGAUAGCGCCAACGUUCUCAACUGUGACACGCAAACCGCGUGCUCCGUUGAAUGCAGUUUAUCAUG [C32G A110G A122C G141C],-4.02
9,GGAUCUUCUCGAUCUAACAAAAAAGACAAAUGUGCCACAAAGCUUGAGAGCAUCUUCGGAUGCAGAGGCGGCAGCCUUCGGUGGGGCGAUAGCGCCAACGUUCUCAACUAUGACACGCAAAACGCGUGCUCCGUUGAAUGGAGUUUAUCAUG [C32G C85G],≤ -4.2
10,GGAUCUUCUCGAUCUAACAAAAAAGACAAAUGUGCCACAAAGCUUGAGAGCAUCUUCGGAUGCAGAGGCGGCAGCCUUCGGUGGUGCGAUAGCGCCAACGUUCUCAACUAUGACACGCAAAACGCGUGCUCCGUUGAAUGGAGUUUAUCAUG [C32G C85U],-3.86
11,GGAUCUUCUCGAUCUAACAAAAAAGACAAAUGUGCCACAAAGCUUGAGUGCAUCUUCGGAUGCAUAGGCGGCAGCCUUCGGUGGCGCGAUAGUGCCAAGGUUCUCAACUUUGACACGCAAAACGCGUGCUCCGUUGAAUGGAGUUUUUCAUG [C32G A49U G65U C93U C99G A110U A147U],≤ -4.2
12,GGAUCUUCUCGAUCUAACAAAAAAGACAAAUGUGCCACAAACCUUGAGUGCAUCUUCGGAUGCAGAGGCGGCAGCCUUCGGUGGCGCGAUAGCCACAACGUUCUCAACUAUGACACGCAAAACGCAUGCUCCGUUGAAUGGAGUUUAUCAUG [C32G G42C A49U G94C C95A G126A],-3.97
13,GGAUCUUCUCGAUCUAACAAAAAAGACAAAUGUGCCACAAUGCUUGAGAGCAUCUUCGGAUGCAGAGGCGGCAGCCUUCGGUGGCGCGAUUGCGCCAACGUUCUCAGCUAUGACACGCAAAACGGGUGCUCCGUCGAAUGGAGUUUAUCAUG [C32G A41U A91U A107G C125G U135C],≤ -4.2
14,GGAUCUUCUCGAUCUAACAAAAAAGACAAAUGUGCCACAAAGCUUGAGAGCAUCUUCGGAUGCAGAGGCGGCAGCCUUCGGUGGCGCGAUAGUGCCAACGUUCUCAACUAUGACACGCUAAACGCGUGCUCCGUUGAAUGGAGUUUUUCAUG [C32G C93U A119U A147U],≤ -4.2
15,GGAUCUUCUCGAUCUAACAAAAAAGACAAAUGUGCCACAAAGCUUGAGAGUAUCUUCGGAUGCAGAGGCGGCAGCCUUCGGUGGCGCGAUAGCUCCAACGUUCUCAACUAUGACACGCAAAACGCGUGCUCCGUUGAAUGGAGUUUAUCAUG [C32G C51U G94U],≤ -4.2
16,GGAUCUUCUCGAUCUAACAAAAAAGACAAAUGUGCCACAAAGCUUGCGAGCAUCUUCGGAUGCAGAGGCGGCACCCUUCGGUGGCGCGAUAGCGCCAACGUUCUCAACUAUGACAUGCAAAACGCGUGCUCAGUUGAUUGGAGUUUAUCAUG [C32G A47C G74C C116U C132A A138U],≤ -4.2
17,GGAUCUUCUCGAUCUAACAAAAAAGACAAAUGUGCCACAAAGCUUGAGAGCCUCUUCGGAACAAGAGGCGGCAGUCUUCGGUGGCGCGAUAGUGCCAACGUUCUCAACUAUGACACGCAAAACGCGUGCUCCGUUGAAUGGAGUUUAUCAUG [C32G A52C U61A G62C C63A C75U C93U],-4.14
18,GGAUCUUCUCGAUCUAACAAAAAAGACAAAUGUGCCACAAAGCUUGAGAGCAUCUUCGGAUGCAGAGGCGGCAGCUUUCGGUGGCGCCAUAGCGCAAACGUUUUCAACUAUGACACGCAAAACGCGGGAUCCGUUGAAAGGUGUUUAUCAUG [C32G C76U G88C C96A C103U U127G C129A U139A A142U],≤ -4.2
19,GGAUCUUCUCGAUCUAACAAAAAAGACAAAUGUGCCACAAAGCUUGAGAGUAACUUCGGAUGCAGAGGCGGCAGCCUUCGGUGGCGCGAUAGCACCAACGAUCUCAACUAUGACACGCAAAGCGCGUGCUCCGUUGAAUGGAGUUUAUCAUG [C32G C51U U53A G94A U101A A122G],≤ -4.2
